Results published in patent US20150073033.

Tests used:
[1] = tested on: purified recombinant His-tagged WT histone H3
[2] = target: purified recombinant GST-Bub3 (wild type) (UniProt O43684)
[3] = target: purified GST-β-catenin (unphosphorylated) (UniProt P35222)
purified GST-β-catenin (unphosphorylated), sequence (P35222 whole entry): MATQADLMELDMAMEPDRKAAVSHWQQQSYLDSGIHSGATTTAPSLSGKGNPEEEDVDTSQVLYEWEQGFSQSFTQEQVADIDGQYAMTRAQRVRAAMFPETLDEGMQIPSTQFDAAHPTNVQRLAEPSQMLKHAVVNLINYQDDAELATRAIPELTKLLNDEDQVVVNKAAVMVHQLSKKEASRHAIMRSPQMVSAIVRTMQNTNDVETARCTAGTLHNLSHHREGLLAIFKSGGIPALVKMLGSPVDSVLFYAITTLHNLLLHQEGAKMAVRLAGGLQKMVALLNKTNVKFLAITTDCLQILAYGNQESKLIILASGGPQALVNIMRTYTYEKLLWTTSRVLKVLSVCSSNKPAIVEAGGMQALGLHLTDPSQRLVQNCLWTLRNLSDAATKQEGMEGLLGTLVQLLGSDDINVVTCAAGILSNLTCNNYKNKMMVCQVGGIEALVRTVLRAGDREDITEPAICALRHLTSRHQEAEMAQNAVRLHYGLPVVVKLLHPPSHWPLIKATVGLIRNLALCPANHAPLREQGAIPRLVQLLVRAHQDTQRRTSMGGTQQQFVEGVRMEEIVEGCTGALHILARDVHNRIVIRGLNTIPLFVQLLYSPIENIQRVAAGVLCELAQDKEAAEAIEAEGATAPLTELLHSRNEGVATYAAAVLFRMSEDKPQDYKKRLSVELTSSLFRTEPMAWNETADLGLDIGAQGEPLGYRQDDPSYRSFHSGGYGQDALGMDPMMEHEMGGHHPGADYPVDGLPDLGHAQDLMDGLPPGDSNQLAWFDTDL

purified recombinant GST-Bub3 (wild type), sequence (O43684 whole entry): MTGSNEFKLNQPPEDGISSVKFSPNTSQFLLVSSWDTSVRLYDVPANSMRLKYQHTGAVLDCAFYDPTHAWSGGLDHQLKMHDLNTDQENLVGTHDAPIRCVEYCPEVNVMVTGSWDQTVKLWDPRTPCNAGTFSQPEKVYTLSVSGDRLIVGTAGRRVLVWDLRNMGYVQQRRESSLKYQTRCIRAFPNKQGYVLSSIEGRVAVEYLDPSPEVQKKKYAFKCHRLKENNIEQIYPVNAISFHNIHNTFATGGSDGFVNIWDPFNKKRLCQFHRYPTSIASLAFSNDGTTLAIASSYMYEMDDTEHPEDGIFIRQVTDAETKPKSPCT

Row | Substance | in vitro phosphorylation with PEP (anti-phospho-Thr and phospho-H3-T11 immunoblot) [1] | in vitro protein kinase assay with PEP (anti-phospho-Tyr immunoblot) [2] | in vitro protein kinase assay (Tyr and Y333 phosphorylation by immunoblot) [3]
1 | purified recombinant His-PKM2 (wild type) | WT PKM2, but not PKM2 K367M kinase-dead mutant (Yang et al., 2011) or PKM1, phosphorylated WT histone H3 but not H3-T11A | PKM2, but not PKM2 K367M or PKM1, phosphorylated Bub3 | 
2 | purified active c-Src |  |  | active c-Src was able to phosphorylate WT β-catenin
